Assay results: patent publication US20220112276A1 (Janssen / Centocor, published 2022)
Numbering of substitutions follows the chain as printed.

B1: 03C05R3 VHH Mono-Fc (Fc fusion)
chain: EVQLVESGGGLVKAEGSLRLSCVASTSIASINVMGWYRQAPGKERELVARISGGGITHYAESVEGRFTISRDNAKNTVHLQMNGLKPEDTAAYYCKADVFASSGHVTTYWGQGTLVTVSSSPAPELLGGPSVFLFPPKPKDTLMISRTPEVTCVVVDVSHEDPEVKFNWYVDGVEVHNAKTKPREEQYNSTYRVVSVLTVLHQDWLNGKEYKCKVSNKALPAPIEKTISKAKGQPREPQVYTKPPSREEMTKNQVSLSCLVKGFYPSDIAVEWESNGQPENNYKTTVPVLDSDGSFRLASYLTVDKSRWQQGNVFSCSVMHEALHNHYTQKSLSLSPGK
B2: 01B02R2L VHH Mono-Fc (Fc fusion)
chain: EVQLVESGGGLVQAGGSLKLACAASGLTFSSYRMGWFRQAPGKEREFVAAIDWNGRGTYYRYYADSVKGRFTISRDNAKNTMCLQMNSLKPEDTAVYYSAIDSRTSIDPRTSGHYRYWGQGTLVTVSSSPAPELLGGPSVFLFPPKPKDTLMISRTPEVTCVVVDVSHEDPEVKFNWYVDGVEVHNAKTKPREEQYNSTYRVVSVLTVLHQDWLNGKEYKCKVSNKALPAPIEKTISKAKGQPREPQVYTKPPSREEMTKNQVSLSCLVKGFYPSDIAVEWESNGQPENNYKTTVPVLDSDGSFRLASYLTVDKSRWQQGNVFSCSVMHEALHNHYTQKSLSLSPGK
B3: 01B04R3L VHH Mono-Fc (Fc fusion)
chain: EVQLVESGGGLVQAGDSLRLSCAASGRTFTTYVMGWFRQAPGKEREFVATIAWSGSTNYKYYADSVKGRFTISRDNAKNTVYLRMNSLKPEDTAVYYCAASTVLTDPRRLNEYANWGQGTLVTVSSSPAPELLGGPSVFLFPPKPKDTLMISRTPEVTCVVVDVSHEDPEVKFNWYVDGVEVHNAKTKPREEQYNSTYRVVSVLTVLHQDWLNGKEYKCKVSNKALPAPIEKTISKAKGQPREPQVYTKPPSREEMTKNQVSLSCLVKGFYPSDIAVEWESNGQPENNYKTTVPVLDSDGSFRLASYLTVDKSRWQQGNVFSCSVMHEALHNHYTQKSLSLSPGK
B4: 01E04R3LS VHH Mono-Fc (Fc fusion)
chain: B3 chain with E44D, A52T, S65P, R84Q, A99T, A100S, L104V, R109K, N115Y
B5: 01C12R2 VHH Mono-Fc (Fc fusion)
chain: EVQLVESGGGLVQAGGSLRLSCAASGRTFGSYSMGWFRQAPGKEREFVGAISWSGSSTYKYYEDSVKGRFTISRDNAKNTVPLQMNSLKPEDTGVYFCGGTMERRDPRRTSAYDYWGQGTLVTVSSSPAPELLGGPSVFLFPPKPKDTLMISRTPEVTCVVVDVSHEDPEVKFNWYVDGVEVHNAKTKPREEQYNSTYRVVSVLTVLHQDWLNGKEYKCKVSNKALPAPIEKTISKAKGQPREPQVYTKPPSREEMTKNQVSLSCLVKGFYPSDIAVEWESNGQPENNYKTTVPVLDSDGSFRLASYLTVDKSRWQQGNVFSCSVMHEALHNHYTQKSLSLSPGK
B6: 01F12R2 VHH Mono-Fc (Fc fusion)
chain: EVQLVESGGGLVQPGGSLRLSCAASGRTFSSYTMGWFRQAPGEEREFVSAISWSSDGTYYKYYTDTVKGRFTISRDNAETTVHLQMNSLKPEDTAVYYCAASSSGTYGDPRSEREYRYWGQGTLVTVSSSPAPELLGGPSVFLFPPKPKDTLMISRTPEVTCVVVDVSHEDPEVKFNWYVDGVEVHNAKTKPREEQYNSTYRVVSVLTVLHQDWLNGKEYKCKVSNKALPAPIEKTISKAKGQPREPQVYTKPPSREEMTKNQVSLSCLVKGFYPSDIAVEWESNGQPENNYKTTVPVLDSDGSFRLASYLTVDKSRWQQGNVFSCSVMHEALHNHYTQKSLSLSPGK
B7: 01F09R3 VHH Mono-Fc (Fc fusion)
chain: QVQLVESGGGLAQAGGSLTLSCAASGTAAGIDVMGWYRQTPGNSREFVARIFSNDVTHYADSVTGRFTLSRTQDKNTVSLQMNSLKPDDTGVYYCNARIWTGSTTVDYWGQGTQVTVSSSPAPELLGGPSVFLFPPKPKDTLMISRTPEVTCVVVDVSHEDPEVKFNWYVDGVEVHNAKTKPREEQYNSTYRVVSVLTVLHQDWLNGKEYKCKVSNKALPAPIEKTISKAKGQPREPQVYTKPPSREEMTKNQVSLSCLVKGFYPSDIAVEWESNGQPENNYKTTVPVLDSDGSFRLASYLTVDKSRWQQGNVFSCSVMHEALHNHYTQKSLSLSPGK
B8: 01F03R2LS VHH Mono-Fc (Fc fusion)
chain: EVQLVESGGGLVQAGDSLRLSCAASGRTGSSGAMGWFRQGPGKEREFVAALMWRNTVTYKYYEDSVKGRFTISRDNAKNTAYLQMNSLKPEDTAVYYCAADPDTYGDPRNSGAYDYWGQGTLVTVSSSPAPELLGGPSVFLFPPKPKDTLMISRTPEVTCVVVDVSHEDPEVKFNWYVDGVEVHNAKTKPREEQYNSTYRVVSVLTVLHQDWLNGKEYKCKVSNKALPAPIEKTISKAKGQPREPQVYTKPPSREEMTKNQVSLSCLVKGFYPSDIAVEWESNGQPENNYKTTVPVLDSDGSFRLASYLTVDKSRWQQGNVFSCSVMHEALHNHYTQKSLSLSPGK
B9: 01A01R3 VHH Mono-Fc (Fc fusion)
chain: EVQLVESGGGLVQAGGSLRLSCAASGSGRTFTSYTMGWFRQAPGKEREFVSALTWADDSTYYKYYADSMKGRLTISRDNAKNTVYLQMNSLKPEDTAVYYCVATGRGLTYDPRDRRKYDYWGQGTQVTVSSSPAPELLGGPSVFLFPPKPKDTLMISRTPEVTCVVVDVSHEDPEVKFNWYVDGVEVHNAKTKPREEQYNSTYRVVSVLTVLHQDWLNGKEYKCKVSNKALPAPIEKTISKAKGQPREPQVYTKPPSREEMTKNQVSLSCLVKGFYPSDIAVEWESNGQPENNYKTTVPVLDSDGSFRLASYLTVDKSRWQQGNVFSCSVMHEALHNHYTQKSLSLSPGK
B10: 01G07R2L VHH Mono-Fc (Fc fusion)
chain: QVQLVESGGGLVQPGGSLRLSCVASGLPFSSSRMAWFAQAPGKEREFVAAIGWRGRTSYKYYADSVKGRFTVSGDNAKKTLDLQMKDLKPEDTALYFCAAHPNDDGDPRISGNYQYWGQGTQVTVSSSPAPELLGGPSVFLFPPKPKDTLMISRTPEVTCVVVDVSHEDPEVKFNWYVDGVEVHNAKTKPREEQYNSTYRVVSVLTVLHQDWLNGKEYKCKVSNKALPAPIEKTISKAKGQPREPQVYTKPPSREEMTKNQVSLSCLVKGFYPSDIAVEWESNGQPENNYKTTVPVLDSDGSFRLASYLTVDKSRWQQGNVFSCSVMHEALHNHYTQKSLSLSPGK
B11: 01C03R3LS VHH Mono-Fc (Fc fusion)
chain: B10 chain with Q1E, F29G, G52A, A63S, K79R, K89N

biological target: T1, human pIgR extracellular domain (ECD) (human, UniProt P01833 19-638); test: SPR, VHH captured by anti-Fc, ECD analyte
T1 construct: Bought from R&D Systems (Cat 2717-PG-050); also called hpIgR ECD
T1 sequence (P01833 other isoform, or with tags, fused parts or gaps): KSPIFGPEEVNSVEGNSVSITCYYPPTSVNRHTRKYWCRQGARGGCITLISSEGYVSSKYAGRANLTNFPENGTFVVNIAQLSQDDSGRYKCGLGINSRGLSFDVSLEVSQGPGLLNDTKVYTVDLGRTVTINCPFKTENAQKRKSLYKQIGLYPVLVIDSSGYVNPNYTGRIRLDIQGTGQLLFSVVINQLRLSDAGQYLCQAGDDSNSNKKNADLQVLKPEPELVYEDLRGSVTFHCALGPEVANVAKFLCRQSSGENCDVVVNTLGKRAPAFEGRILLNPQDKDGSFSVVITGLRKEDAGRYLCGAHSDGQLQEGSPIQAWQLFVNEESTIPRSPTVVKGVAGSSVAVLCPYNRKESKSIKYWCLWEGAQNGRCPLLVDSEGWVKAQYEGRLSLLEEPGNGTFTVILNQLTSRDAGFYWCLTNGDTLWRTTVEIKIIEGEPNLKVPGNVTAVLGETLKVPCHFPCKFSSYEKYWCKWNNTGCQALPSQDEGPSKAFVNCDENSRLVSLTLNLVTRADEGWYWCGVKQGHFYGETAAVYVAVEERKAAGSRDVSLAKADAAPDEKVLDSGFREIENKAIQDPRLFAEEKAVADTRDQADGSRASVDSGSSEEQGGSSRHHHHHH
Method in brief: (§1)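 Anti-human Fc surface captured VHH at 0.5 ug/ml (~200-300 RU); running buffer HBSP with 100 ug/ml BSA, 30 μL/min. Single-cycle kinetics with ECD injected low to high from 30 nM in 3-fold dilutions, dissociation 30 min. Double-referenced data globally fit to 1:1 Langmuir model for kon, koff, KD.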

**Q.** How did the Kd turn out when B1 was run?
**A.** 0.094 nM

**Q.** B2 was tested. Which Kd did it give?
**A.** 20.2 nM

**Q.** B3 was tested. Which Kd did it give?
**A.** 13.8 nM

**Q.** Which Kd does the source give for B4 here?
**A.** 5.37 nM

**Q.** Which Kd does the source give for B5 here?
**A.** 21.4 nM

**Q.** How did the Kd turn out when B6 was run?
**A.** 12.5 nM

**Q.** For B7, which Kd is on record?
**A.** 0.397 nM

**Q.** Which Kd does the source give for B8 here?
**A.** 26.2 nM

**Q.** For B9, which Kd is on record?
**A.** 1.31 nM

**Q.** B10 was tested. Which Kd did it give?
**A.** 3.32 nM

**Q.** How did the Kd turn out when B11 was run?
**A.** 4.87 nM

biological target: T2, mouse pIgR extracellular domain (ECD) (mouse, UniProt O70570 19-645); test: SPR, VHH captured by anti-Fc, ECD analyte
T2 construct: Bought from R&D Systems (Cat 2800-PG-050); also called mpIgR ECD
T2 sequence: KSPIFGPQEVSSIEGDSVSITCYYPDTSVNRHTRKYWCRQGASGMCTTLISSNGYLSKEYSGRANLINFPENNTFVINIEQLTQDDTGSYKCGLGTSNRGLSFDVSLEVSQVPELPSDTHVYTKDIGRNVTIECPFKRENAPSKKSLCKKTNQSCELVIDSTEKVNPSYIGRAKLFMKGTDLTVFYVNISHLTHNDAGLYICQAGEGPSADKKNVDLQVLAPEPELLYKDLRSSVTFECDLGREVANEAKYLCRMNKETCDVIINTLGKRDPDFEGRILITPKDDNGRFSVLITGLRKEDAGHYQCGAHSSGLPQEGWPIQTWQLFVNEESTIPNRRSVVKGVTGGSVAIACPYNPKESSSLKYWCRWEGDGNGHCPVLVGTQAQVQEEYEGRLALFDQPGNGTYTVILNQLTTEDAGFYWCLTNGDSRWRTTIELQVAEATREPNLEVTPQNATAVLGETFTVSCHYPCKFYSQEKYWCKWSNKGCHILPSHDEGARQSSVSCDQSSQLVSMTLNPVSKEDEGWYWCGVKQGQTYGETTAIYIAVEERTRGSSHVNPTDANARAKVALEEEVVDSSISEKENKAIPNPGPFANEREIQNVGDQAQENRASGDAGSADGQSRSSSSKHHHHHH
Method in brief: as §1

**Q.** With B1 as the binder, how does the Kd read?
**A.** 9.02 nM

**Q.** For B2, which Kd is on record?
**A.** 4.47 nM

**Q.** With B3 as the binder, how does the Kd read?
**A.** 9.2 nM

**Q.** B4 was tested. Which Kd did it give?
**A.** 3.76 nM

**Q.** Which Kd does the source give for B5 here?
**A.** 4.76 nM

**Q.** For B6, which Kd is on record?
**A.** 264 nM

**Q.** With B7 as the binder, how does the Kd read?
**A.** 985 nM

**Q.** Which Kd does the source give for B8 here?
**A.** 1.57 nM

**Q.** How did the Kd turn out when B9 was run?
**A.** 14 nM

**Q.** For B10, which Kd is on record?
**A.** 0.948 nM

**Q.** B11 was tested. Which Kd did it give?
**A.** 0.8 nM

biological target: T3, cynomolgus monkey pIgR extracellular domain (cynomolgus monkey, UniProt A0A2K5WMU9 19-638); test: SPR, VHH captured by anti-Fc, ECD analyte
T3 construct: extracellular domain
T3 sequence (A0A2K5WMU9 entry or part of it): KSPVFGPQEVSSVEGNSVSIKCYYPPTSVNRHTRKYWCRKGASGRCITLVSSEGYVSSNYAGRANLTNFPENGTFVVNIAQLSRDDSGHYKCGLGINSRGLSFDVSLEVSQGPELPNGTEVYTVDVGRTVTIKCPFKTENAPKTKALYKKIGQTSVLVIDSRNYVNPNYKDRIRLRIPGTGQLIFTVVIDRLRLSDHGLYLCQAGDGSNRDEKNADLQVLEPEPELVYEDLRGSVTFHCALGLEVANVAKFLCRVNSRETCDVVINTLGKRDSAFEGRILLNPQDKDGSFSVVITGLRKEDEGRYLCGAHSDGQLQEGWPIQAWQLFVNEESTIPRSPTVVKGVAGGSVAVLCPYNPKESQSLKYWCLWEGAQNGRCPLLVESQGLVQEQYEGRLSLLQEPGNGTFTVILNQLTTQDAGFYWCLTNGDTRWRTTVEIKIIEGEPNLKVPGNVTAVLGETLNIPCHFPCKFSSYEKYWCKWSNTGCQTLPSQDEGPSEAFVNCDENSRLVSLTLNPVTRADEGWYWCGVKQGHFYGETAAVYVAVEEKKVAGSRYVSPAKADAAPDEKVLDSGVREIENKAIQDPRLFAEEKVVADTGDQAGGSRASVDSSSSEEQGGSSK
Method in brief: as §1

**Q.** B1 was tested. Which Kd did it give?
**A.** 16.5 nM

**Q.** How did the Kd turn out when B2 was run?
**A.** 14.2 nM

**Q.** How did the Kd turn out when B3 was run?
**A.** 5.94 nM

**Q.** Which Kd does the source give for B4 here?
**A.** 3.97 nM

**Q.** B5 was tested. Which Kd did it give?
**A.** 23 nM

**Q.** Which Kd does the source give for B6 here?
**A.** 3.17 nM

**Q.** B7 was tested. Which Kd did it give?
**A.** 566 nM

**Q.** How did the Kd turn out when B8 was run?
**A.** 34.4 nM

**Q.** How did the Kd turn out when B9 was run?
**A.** 4.93 nM

**Q.** With B10 as the binder, how does the Kd read?
**A.** 4.02 nM

**Q.** Which Kd does the source give for B11 here?
**A.** 2.84 nM

biological target: T4, rat pIgR extracellular domain (rat, UniProt P15083 19-643); test: SPR, VHH captured by anti-Fc, ECD analyte
T4 construct: extracellular domain
T4 sequence (looked up): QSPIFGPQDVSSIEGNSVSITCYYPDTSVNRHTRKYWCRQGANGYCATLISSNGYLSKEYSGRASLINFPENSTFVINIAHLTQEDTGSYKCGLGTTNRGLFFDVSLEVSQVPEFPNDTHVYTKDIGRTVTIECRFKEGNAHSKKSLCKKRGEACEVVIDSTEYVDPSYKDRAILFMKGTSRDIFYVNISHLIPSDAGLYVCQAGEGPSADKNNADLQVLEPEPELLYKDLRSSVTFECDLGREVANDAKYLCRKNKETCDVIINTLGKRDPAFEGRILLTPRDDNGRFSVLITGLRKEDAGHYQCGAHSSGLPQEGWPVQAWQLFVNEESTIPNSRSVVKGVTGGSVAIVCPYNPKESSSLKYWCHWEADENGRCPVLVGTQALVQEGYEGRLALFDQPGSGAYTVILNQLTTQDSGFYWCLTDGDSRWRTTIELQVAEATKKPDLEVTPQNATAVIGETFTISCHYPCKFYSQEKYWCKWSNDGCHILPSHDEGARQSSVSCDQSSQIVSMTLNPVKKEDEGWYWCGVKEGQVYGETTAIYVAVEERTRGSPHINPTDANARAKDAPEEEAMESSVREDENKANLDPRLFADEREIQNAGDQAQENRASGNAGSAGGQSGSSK
Method in brief: as §1

**Q.** Which Kd does the source give for B1 here?
**A.** 1.83 nM

**Q.** How did the Kd turn out when B2 was run?
**A.** 13.4 nM

**Q.** With B3 as the binder, how does the Kd read?
**A.** 4.71 nM

**Q.** With B4 as the binder, how does the Kd read?
**A.** 1.36 nM

**Q.** With B5 as the binder, how does the Kd read?
**A.** 14.1 nM

**Q.** How did the Kd turn out when B6 was run?
**A.** 4.2 nM

**Q.** How did the Kd turn out when B7 was run?
**A.** 70.8 nM

**Q.** B8 was tested. Which Kd did it give?
**A.** 8.05 nM

**Q.** How did the Kd turn out when B9 was run?
**A.** 1.34 nM

**Q.** How did the Kd turn out when B10 was run?
**A.** 1.44 nM

**Q.** B11 was tested. Which Kd did it give?
**A.** 3.02 nM
